Data set [1] has as its system human ankle cartilage explants. Nature of the data set: Quantitative uptake of fusion proteins in human ankle cartilage (uptake ratio). It is filed as in vitro ADME. The conditions noted are these: 1 μM in PBS + 1% BSA. The method, then:
Cartilage explants were incubated in 250 μL of 1 μM solutions of different fusion proteins dissolved in 1×PBS+1% BSA for either 36 hours (FIG. 4A) or for 108 hours (FIG. 4B) (4.5 days). A group with free +9 GFP dissolved in 1×PBS+1% BSA (1 μM concentration) was included as a control for each of these two time points. An additional untreated control was included in these experiments. Cartilage explants were incubated in plain 1×PBS+1% BSA to account for and to correct for any autofluorescence effects. At the end of the incubation in the 1×PBS+1% BSA: The explants were transferred to a 10×PBS+1% BSA bath for 48 hours. The purpose of this was to desorb the GFPs taken up by the explants. The amount of GFPs left behind in the […] bath was quantified through fluorescence measurements. The desorption step in 10×PBS+1% BSA was followed by a second desorption step using fresh 10×PBS+1% BSA just to ensure any GFPs left in the explant after the 1st desorption come out. At the end of each desorption step, the fluorescence of the 10×PBS+1% BSA bath was measured. After the 2nd desorption step, the explants were digested in Proteinase K and their fluorescence was measured. The uptake ratio for the 36 hour and 108 hour experiments was calculated as (FIG. 4C): […]
Cartilage explants that had been equilibrated in culture medium post-harvest were transferred to sterile PBS and allowed to equilibrate for 1 hour before the start of the experiments. Sterile PBS solutions containing 1% bovine serum albumin (BSA) were prepared. Following this, 1 μM solutions of (+9GFP), (+9GFP)-(GGGGS)4-(IGF-1) (SEQ ID NO: 7), (+9GFP)-(EAAAK)3-(IGF-1) (SEQ ID NO: 8) and (+9GFP)-(GGGGS)3-(IGF-1) (SEQ ID NO: 9) were prepared. The BSA was included in the PBS to minimize loss of GFPs in the solution caused by non-specific binding to the plasticware. […] In contrast, use of polypropylene with 1% BSA enabled complete recovery of fluorescence.
At the end of the incubation period, cartilage explants were washed with PBS and transferred to a solution of 10×PBS+1% BSA for desorption. At the same time, the fluorescence of the absorption bath was measured using a plate reader (Synergy H1, Biotek Instruments Inc.) (excitation: 485 nm, emission: 528 nm). […] At the end of the desorption in 10×PBS+1% BSA, cartilage explants were weighed, and the fluorescence of the desorption bath was measured. This fluorescence measurement was used with a standard curve and the explant wet weights to calculate the concentration of GFP inside cartilage explants (mol/mg wet weight). The uptake ratio was calculated as the ratio of GFP concentration inside cartilage (mol/mg wet weight) to the final absorption bath concentration (mol/mL).

Data set [2] deals with human ankle cartilage explants. Nature of the data set: Cumulative sGAG loss and final explant sGAG content (DMMB), human ankle cartilage dose response. It is filed as cell-based. The conditions noted are these: continuous free IGF-1; any of the three time points. The method, then:
Since each fusion protein had one IGF-1 domain, equivalent doses (39.2 nM) of these were tested. In addition to this, 500 nM, 1 μM and 2 μM doses of fusion proteins were also tested. In all cases, only a single dose of the fusion proteins was added at the start of the experiment, and media changes were carried out without fusion proteins once every 2 to 3 days thereafter. In contrast, continuous doses of free IGF-1 were used for the positive control. An untreated control group was also included in the experiments. Experiments were terminated at 3-day, 7-day and 15-day time points. Outcome measures included the biosynthesis rate of sulfated glycosaminoglycans (sGAG), explant metabolic rate, sGAG loss to the culture medium and the explant sGAG content at the end of the experiment.
The metabolic rate of cartilage explants was measured using the Alamar Blue assay (ThermoFisher). […] At the end of the incubation period, the absorbance of the medium at 570 nm and 600 nm was measured using a microplate reader (Synergy H1 Hybrid Multi-Mode Microplate Reader, BioTek). These readings were used to calculate the percentage reduction of Alamar Blue, which is directly proportional to the explant metabolic rate. […] Following this, the weight-normalized readings for the treatment groups were normalized by the weight-normalized mean value for the untreated controls. […]

Turning to “(+9GFP)-(GGGGS)4-(IGF-1): fusion protein of +9 GFP and human IGF-1 with flexible (GGGGS)4 linker, SEQ ID NO: 7”, the “Uptake ratio (Mean)” value is on record as 12.7 in data set [1] (36 hr) and 18.3 in data set [1] (108 hr).
For the substance “IGF-1: free recombinant human IGF-1 (PeproTech), pro-anabolic growth factor used as the positive control”, the “final explant GAG content or cumulative GAG loss percent compared to the untreated control” value in data set [2] is on record as “did not have any change”.

Values taken from patent US12653899B2, “Multi-targeted, tunable, sustained delivery of payloads to charged avascular tissues” (Massachusetts Institute of Technology, priority 2019, dated 2026).
